To fix the notation:
B1: Flag-CNK^2–549 [Drosophila] / Myc-MEK [Drosophila] (parent)
chain 1: MSKNKLNLVLPPVNTEATVAAATVAPTPPFKTPSGTDTHSLLGKPKTSIDALTETLEGLDMGDTERKRIKMFLSQKEKIGELSDEDLEKLGELGSGNGGVVMKVRHTHTHLIMARKLIHLEVKPAIKKQILRELKVLHECNFPHIVGFYGAFYSDGEISICMEYMDGGSLDLILKRAGRIPESILGRITLAVLKGLSYLRDNHAIIHRDVKPSNILVNSSGEIKICDFGVSGQLIDSMANSFVGTRSYMSPERLQGTHYSVQSDIWSLGLSLVEMAIGMYPIPPPNTATLESIFADNAEESGQPTDEPRAMAIFELLDYIVNEPPPKLEHKIFSTEFKDFVDICLKKQPDERADLKTLLSHPWIRKAELEEVDISGWVCKTMDLPPSTPKRNTSPN
chain 2: AYINIAEWTPDQVTDWIKGLDESMKGYLYEFSKQEIGGRALLNIRPYELENLGMLRIGHQEIVLEAVENLRNFHYHLKNDNLQFMALHVATAAKNLHRELARNHAESTKIDTRILHDITRTIATLKPLVGSLERTPFRKQEMYREYCGNVLKCGLELATIAHRDRFALQPVPAIRQSAERLENLANFVIQDISDPMVLQPASLNLVTLKKRESELGFNIESSYNGIHRVTDIKYNSPAHNSGKIEDGDEIVQINYQTVVGWQHRTVLEHLREALPDVVLTVKKRPKHTKMFGQIYMQPYRLPSKKRNMAARWAAQMPSPRAAFLTLDTEQLATGGTGSAVPDPSKSLSSEKREVLTKANPVSSASDSDSSCSDIPTPTDPKLAAREIRLYYPKPRALLQRRNTICGCEYLSLKNSDLVVPSWHERKPGIGSPTNCDPGSPSIRDKSISFGYGLEMAARPTTCIGIAGDTSTDKARRMFHEARKLKQLTEDSQREFLVDRYKPGVSKVVRFDAKEDYVMKNEKFICNVENTILETFEPIPFADEGDEDA

The variants in the assay derive from B1. The assay is described as follows: GST pull-down, immunoblot quantification. Conditions: with Myc-MEK [Drosophila], S2 cells, captured via GST-HYP, anti-MEK blot, parent: 1. A general note: In western blotting, separated proteins are transferred to a membrane and probed.
Where [1] appears, read: GST-HYP + RRKM (Ha-RASV12, Pyo-RAF, V5-KSR, Myc-MEK) co-expressed.
Where [2] appears, read: GST-HYP, V5-KSR, Myc-MEK co-expressed.

Experimental findings from article PMC11257983 (2024) are described below.

As to chain 2 AYINIAEWTPDQVTDWIKGLDESMKGYLYEFSKQEIGGRALLNIRPYELENLGMLRIGHQEIVLEAVENLRNFHYHLKNDNLQFMALHVATAAKNLHRELARNHAESTKIDTRILHDITRTIATLKPLVGSLERTPFRKQEMYREYCGNVLKCGLELATIAHRDRFALQPVPAIRQSAERLENLANFVIQDISDPMVLAPASLNLVTLKKRESELGFNIESSYNGIHRVTDIKYNSPAHNSGKIEDGDEIVQINYQTVVGWQHRTVLEHLREALPDVVLTVKKRPKHTKMFGQIYMQPYRLPSKKRNMAARWAAQMPSPRAAFLTLDTEQLATGGTGSAVPDPSKSLSSEKREVLTKANPVSSASDSDSSCSDIPTPTDPKLAAREIRLYYPKPRALLQRRNTICGCEYLSLKNSDLVVPSWHERKPGIGSPTNCDPGSPSIRDKSISFGYGLEMAARPTTCIGIAGDTSTDKARRMFHEARKLKQLTEDSQREFLVDRYKPGVSKVVRFDAKEDYVMKNEKFICNVENTILETFEPIPFADEGDEDA [chain 2 Q199A], the ratio to parent by setting is: under setting [1], 0.68; under setting [2], 0.62.
On the same counts, the results for chain 2 AYINIAEWTPDQVTDWIKGLDESMKGYLYEFSKQEIGGRALLNIRPYELENLGMLRIGHQEIVLEAVENLRNFHYHLKNDNLQFMALHVATAAKNLHRELARNHAESTKIDTRILHDITRTIATLKPLVGSLERTPFRKQEMYREYCGNVLKCGLELATIAHRDRFALQPVPAIRQSAERLENLANFVIQDISDPMELQPASLNLVTLKKRESELGFNIESSYNGIHRVTDIKYNSPAHNSGKIEDGDEIVQINYQTVVGWQHRTVLEHLREALPDVVLTVKKRPKHTKMFGQIYMQPYRLPSKKRNMAARWAAQMPSPRAAFLTLDTEQLATGGTGSAVPDPSKSLSSEKREVLTKANPVSSASDSDSSCSDIPTPTDPKLAAREIRLYYPKPRALLQRRNTICGCEYLSLKNSDLVVPSWHERKPGIGSPTNCDPGSPSIRDKSISFGYGLEMAARPTTCIGIAGDTSTDKARRMFHEARKLKQLTEDSQREFLVDRYKPGVSKVVRFDAKEDYVMKNEKFICNVENTILETFEPIPFADEGDEDA [chain 2 V197E] are 0.04 and 0.03.
On the same counts, the results for chain 2 AYINIAEWTPDQVTDWIKGLDESMKGYLYEFSKQEIGGRALLNIRPYELENLGMLRIGHQEIVLEAVENLRNFHYHLKNDNLQFMALHVATAAKNLHRELARNHAESTKIDTRILHDITRTIATLKPLVGSLERTPFRKQEMYREYCGNVLKCGLELATIAHRDRFALQPVPAIRQSAERLENLANFVIQDISKPMVLQPASLNLVTLKKRESELGFNIESSYNGIHRVTDIKYNSPAHNSGKIEDGDEIVQINYQTVVGWQHRTVLEHLREALPDVVLTVKKRPKHTKMFGQIYMQPYRLPSKKRNMAARWAAQMPSPRAAFLTLDTEQLATGGTGSAVPDPSKSLSSEKREVLTKANPVSSASDSDSSCSDIPTPTDPKLAAREIRLYYPKPRALLQRRNTICGCEYLSLKNSDLVVPSWHERKPGIGSPTNCDPGSPSIRDKSISFGYGLEMAARPTTCIGIAGDTSTDKARRMFHEARKLKQLTEDSQREFLVDRYKPGVSKVVRFDAKEDYVMKNEKFICNVENTILETFEPIPFADEGDEDA [chain 2 D194K] are 0.05 and 0.05.
